Test results: paper PMC11088715, “CsEXL3 regulate mechanical harvest-related droopy leaves under the transcriptional activation of CsBES1.2 in tea plant”

Tests used:
CsBES1.2-MBP [1] = biological target: T1, CsBES1.2-MBP (Camellia sinensis (cDNA from cv. …, UniProt UPI0010362774 1-322)); test: EMSA; weaker than P2 E-box probe per text; Beyotime Chemiluminescent EMSA Kit; 6.5% polyacrylamide gel, 60 V 65 min; binding buffer, salt, pH and temperature not stated; details: protein: recombinant; tags: MBP (pMAL-c5x); label: 5' biotin (probe); blunt
T1 sequence: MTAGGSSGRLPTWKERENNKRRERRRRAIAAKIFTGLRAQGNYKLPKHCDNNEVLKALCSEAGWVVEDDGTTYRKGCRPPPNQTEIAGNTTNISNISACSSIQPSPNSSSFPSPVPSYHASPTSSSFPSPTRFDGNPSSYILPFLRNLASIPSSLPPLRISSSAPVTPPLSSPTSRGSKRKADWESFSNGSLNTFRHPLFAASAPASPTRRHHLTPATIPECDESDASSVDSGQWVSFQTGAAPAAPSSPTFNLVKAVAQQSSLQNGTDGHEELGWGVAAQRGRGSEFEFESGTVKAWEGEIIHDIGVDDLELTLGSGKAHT

CsBES1.2-MBP [2] = biological target: T1, CsBES1.2-MBP; test: EMSA; outcompeted by unlabeled probe; stronger than P1 per text; Beyotime Chemiluminescent EMSA Kit; 6.5% polyacrylamide gel, 60 V 65 min; binding buffer, salt, pH and temperature not stated; details: protein: recombinant; tags: MBP (pMAL-c5x); label: 5' biotin (probe); blunt
CsBES1.2-MBP [3] = biological target: T1, CsBES1.2-MBP; test: competition; unlabeled mutant vs biotin-P2 probe; did not outcompete; Beyotime Chemiluminescent EMSA Kit; 6.5% polyacrylamide gel, 60 V 65 min; binding buffer, salt, pH and temperature not stated; details: protein: recombinant; tags: MBP (pMAL-c5x); label: unlabeled; blunt

B1: CsEXL3 promoter P1 (BRRE-box) probe (dsDNA)
DNA 1: GCGAGGCGACGAGGCGGAGG
DNA 2: CCTCCGCCTCGTCGCCTCGC
binding result (CsBES1.2-MBP [1]): binds

B2: CsEXL3 promoter P2 (E-box) probe (dsDNA)
DNA 1: TGAATCCCACGTGTGCAGAACT
DNA 2: AGTTCTGCACACGTGGGATTCA
binding result (CsBES1.2-MBP [2]): binds

B3: Mutant CsEXL3 promoter P2 competitor (dsDNA)
DNA 1: TGAATCCAAAAAATGCAGAACT
DNA 2: AGTTCTGCATTTTTTGGATTCA
binding result (CsBES1.2-MBP [3]): no binding
